Source: patent publication US20250163186A1 (PHYLAXIS BIOSCIENCE, published 2025)

Key:
human IgE [1] = molecular target: T1, human IgE (human, UniProt P01854 1-428); assay: ELISA, plate-coated IgE, apparent Kd (one site fit)
T1 construct: written under the same molecule; also called IgE (Abcam ab65866); soluble IgE
From the text: The data was plotted and analyzed using GraphPad Prism analysis software.

human IgE [2] = molecular target: T1, human IgE; assay: SPR, blocks binding of 5 nM IgE to captured FCER1A
Method: (§1) All experiments were done using a Biacore T200 instrument with a CM5 chip at 25° C., Flow Cell (FC) 1 was used as the reference for FC2, and FC3 for FC4.
(§2) Anti-His antibody (1 mg/ml stock) was diluted (1:100 dilution, 0.01 mg/ml diluted concentration) in 10 mM sodium acetate buffer at pH 4.5 and immobilized onto FCs 1 and 2 to a level of ˜14000 RU, using the standard amine coupling chemistry. […] FCER1A (0.4 mg/ml stock concentration) was diluted ([…], ˜0.004 mg/ml diluted concentration) in PBS-P captured onto FC2 to levels of ˜130 RU. PBS-P was used as the capture running buffer. Overnight kinetics were performed for all analytes in the presence of PBS-P. The flow rate of all analyte solutions was maintained at 50 μL/min. The contact and dissociation times used were 120 seconds and 300 seconds, respectively. Glycine pH 1.5 was injected for 20 seconds for surface regeneration. This regeneration condition takes away all captured FCER1A. Therefore, fresh FCER1A was captured in the beginning of each injection cycle. […] All analytes were injected in duplicate. […] Sensorgrams from the overnight kinetics were plotted for further evaluation.

human IgE [3] = molecular target: T1, human IgE; assay: ELISA, plate-coated IgE
[4] = molecular target: T2, recombinant human FCER1A-His (ACRO FCA-H5228) (human, UniProt P12319 26-205); assay: SPR, antibody alone injected over captured FCER1A
T2 construct: Bought protein; also called FceRIA; IgE receptor
T2 sequence: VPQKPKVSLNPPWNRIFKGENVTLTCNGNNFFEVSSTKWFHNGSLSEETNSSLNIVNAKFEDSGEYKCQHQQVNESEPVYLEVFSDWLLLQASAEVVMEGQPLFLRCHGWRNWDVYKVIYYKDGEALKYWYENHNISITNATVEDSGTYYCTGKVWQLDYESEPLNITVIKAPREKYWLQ
Method: as §1, §2

human IgE [5] = molecular target: T1, human IgE; assay: SPR (Biacore T200, 25 C), IgE captured on protein L, antibody as analyte, 1:1 fit
Method: as §1
Protein L (15 mg/mL) was diluted (1:50 dilution, 0.3 mg/mL diluted concentration) in 10 mM sodium acetate buffer at pH 4.5 and immobilized onto FCs 1 and 2 to a level of ˜13000 RU, using the standard amine coupling chemistry. […] PBS-P was used as the capture running buffer. Overnight kinetics were performed for all analytes in the presence of PBS-P. The flow rate of all analyte solutions was maintained at 50 μL/min. The contact and dissociation times used were 120 seconds and 600 seconds, respectively. Glycine pH 2.0 was injected for 20 seconds for surface regeneration. This regeneration condition takes away all captured ligand. Therefore, fresh ligand solution was captured in the beginning of each injection cycle. Injected analyte concentrations are from 50 nM to 0.098 nM (two-fold dilutions). All analytes were injected in duplicate. Sensorgrams from the overnight kinetics were evaluated by using 1:1 kinetics model fitting.

T1 sequence (P01854 other isoform, or with tags, fused parts or gaps limits assumed, form in doubt): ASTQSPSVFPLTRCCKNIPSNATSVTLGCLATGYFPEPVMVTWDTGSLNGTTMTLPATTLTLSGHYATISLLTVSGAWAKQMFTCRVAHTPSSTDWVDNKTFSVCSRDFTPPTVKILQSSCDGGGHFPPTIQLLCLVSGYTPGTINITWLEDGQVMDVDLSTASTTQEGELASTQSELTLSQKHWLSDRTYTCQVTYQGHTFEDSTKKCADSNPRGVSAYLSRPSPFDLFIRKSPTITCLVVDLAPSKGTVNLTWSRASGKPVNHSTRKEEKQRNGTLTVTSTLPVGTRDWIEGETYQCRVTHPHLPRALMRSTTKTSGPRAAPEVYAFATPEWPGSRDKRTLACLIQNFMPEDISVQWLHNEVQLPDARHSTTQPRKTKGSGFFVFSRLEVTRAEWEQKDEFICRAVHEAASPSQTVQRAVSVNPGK

- Kd (human IgE [1]): 0.197 nM
- IC50 (human IgE [2]): ~2.4 nM
- Bmax (OD 650 nm) (human IgE [3]): 0.742 OD 650 nm
- binding result [4]: no binding (tested: 200 nM)
- Kd (human IgE [5]): 0.8 nM
- koff (human IgE [5]): 0.000288 s⁻¹
- kon (human IgE [5]): 359000 M⁻¹ s⁻¹
B1: hzB10v14-IgG1 DSELF Fc region (cx12739) (Fc fusion)
chain: EVQLLESGGGEVQPGGSLRLSCVASGLTFSSYNMGWLRQAPGKEREFVGLSGSSSTSTYYADSVKGRFTISRDNSKNTVYLQMNSLKPEDTAVYYCAARRLLSTYWSDRSWDFWGQGTQVTVEPGGGGDKTHTCPPCPAPELLDGPSVFLFPPKPKDTLMISRTPEVTCVVVDVEHEDPEVKFNWYVDGVEVHNAKTKPREEQYNSTYRVVSVLTVLHQDWLNGKEYKCKVSNKAFPAPIEKTISKAKGQPREPQVYTLPPSREEMTKNQVSLTCLVKGFYPSDIAVEWESNGQPENNYKTTPPVLDSDGSFFLYSKLTVDKSRWQQGNVFSCSVMHEALHNHYTQKSLSLSPGK
notes: hzB10v14 VHH + GGGG linker + human IgG1 Fc with G236D/S267E/L328F; the Fc drives homodimer formation (bivalent); also called hzB10v14-DSELF; hzB10v14-IgG DSELF Fc
